The record followed here is patent publication US20140271602, “NUCLEOTIDE-SPECIFIC RECOGNITION SEQUENCES FOR DESIGNER TAL EFFECTORS” (THE BROAD INSTITUTE INC., published 2014).

Data set [1] concerns NH-TALE (RVD screening) (Xanthomonas (engineered)). Nature of the data set: cell_activity. The note with it: luciferase reporter.
Data set [2] concerns NN-TALE (RVD screening) (Xanthomonas (engineered)). Nature of the data set: cell_activity. The note with it: luciferase reporter. A general note: A reporter such as luciferase makes a cellular process visible.
Data set [3] relates to SOX2 TALE-TF (Xanthomonas (engineered)). Briefly: cell_activity. The note with it: endogenous SOX2.
Data set [4] has as its system AAVS1 right TALEN (Xanthomonas (engineered)). Briefly: cell_activity. The following applies: Surveyor assay, with left TALEN, 293FT.
The test system of data set [5] is AAVS1 left TALEN (Xanthomonas (engineered)). Nature of the data set: cell_activity. The note with it: Surveyor assay, with right TALEN, 293FT.
Data set [6] has as its target T1, TALE2-NN (CACNA1C site 2 activator) (Xanthomonas (engineered), UniProt P14727 SEQ:1-983).
T1 chain: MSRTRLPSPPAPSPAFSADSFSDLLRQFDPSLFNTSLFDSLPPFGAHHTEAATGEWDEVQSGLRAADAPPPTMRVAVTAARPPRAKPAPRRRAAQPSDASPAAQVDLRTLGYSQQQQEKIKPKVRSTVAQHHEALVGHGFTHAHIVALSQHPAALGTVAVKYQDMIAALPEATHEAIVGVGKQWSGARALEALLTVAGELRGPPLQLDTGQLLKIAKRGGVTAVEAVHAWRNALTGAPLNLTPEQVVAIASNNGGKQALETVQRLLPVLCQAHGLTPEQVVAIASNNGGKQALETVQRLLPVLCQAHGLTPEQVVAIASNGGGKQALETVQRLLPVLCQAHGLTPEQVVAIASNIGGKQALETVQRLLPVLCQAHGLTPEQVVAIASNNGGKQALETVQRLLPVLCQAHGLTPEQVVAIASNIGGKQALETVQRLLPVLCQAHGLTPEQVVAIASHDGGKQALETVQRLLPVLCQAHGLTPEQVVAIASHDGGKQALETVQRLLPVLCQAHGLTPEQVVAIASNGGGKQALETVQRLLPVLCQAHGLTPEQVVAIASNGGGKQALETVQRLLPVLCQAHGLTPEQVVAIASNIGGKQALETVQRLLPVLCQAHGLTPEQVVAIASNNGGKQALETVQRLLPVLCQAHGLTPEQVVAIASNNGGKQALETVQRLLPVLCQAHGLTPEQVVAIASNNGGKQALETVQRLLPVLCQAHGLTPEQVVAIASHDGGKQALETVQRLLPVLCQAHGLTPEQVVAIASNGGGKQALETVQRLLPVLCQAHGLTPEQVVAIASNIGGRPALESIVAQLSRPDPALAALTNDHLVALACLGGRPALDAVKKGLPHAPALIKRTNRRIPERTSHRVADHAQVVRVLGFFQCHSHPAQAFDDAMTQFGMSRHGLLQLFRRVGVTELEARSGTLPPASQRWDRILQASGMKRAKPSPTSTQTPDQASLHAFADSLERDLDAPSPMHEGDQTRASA
Briefly: cell_activity; HEK 293FT, endogenous CACNA1C mRNA. The note with it: tags: VP64, 2A-GFP. Here is the method:
Changes in mRNA are measured using qRT-PCR as described previously. VP64, VP64 transcription activation domain. All results are collected from three independent experiments in HEK 293FT cells. Error bars indicate s.e.m.; n=3. FIG. 19(b) discloses SEQ ID NOS 63 and 62, respectively, in order of appearance.
Using qRT-PCR, the performance of NN, NK, NH, and HN for targeting endogenous genomic sequences was further compared. The ability of NN-, NK-, NH-, and HN-TALEs to activate CACNA1C transcription by targeting the two endogenous target sites was tested (FIG. 19b). […] Both TALE 1-NH and TALE2-NH were able to achieve similar levels of transcriptional activation as TALE1-NN and TALE2-NN (˜5 and ˜3 folds of activation for targets 1 and 2, respectively) and twice more than TALE-NK and TALE2-NK (FIG. 19b). […] On the other hand, based on all the results from specificity and endogenous activity tests, the RVD NH seems to be a more suitable substitute for NN than NK when higher targeting specificity is desired, as it also provides higher levels of biological activity. Further testing using additional endogenous genomic targets helps validate the broad utility of NH as a highly specific G-targeting RVD.
For the endogenous gene transcriptional level assay to test the biological activities of TALE activators and TALE repressors, HEK 293FT cells were seeded into 24-well plates. […]

In data set [7] the target is T2, TALE2-NH (CACNA1C site 2 activator) (Xanthomonas (engineered), UniProt P14727 SEQ:1-983).
T2 chain: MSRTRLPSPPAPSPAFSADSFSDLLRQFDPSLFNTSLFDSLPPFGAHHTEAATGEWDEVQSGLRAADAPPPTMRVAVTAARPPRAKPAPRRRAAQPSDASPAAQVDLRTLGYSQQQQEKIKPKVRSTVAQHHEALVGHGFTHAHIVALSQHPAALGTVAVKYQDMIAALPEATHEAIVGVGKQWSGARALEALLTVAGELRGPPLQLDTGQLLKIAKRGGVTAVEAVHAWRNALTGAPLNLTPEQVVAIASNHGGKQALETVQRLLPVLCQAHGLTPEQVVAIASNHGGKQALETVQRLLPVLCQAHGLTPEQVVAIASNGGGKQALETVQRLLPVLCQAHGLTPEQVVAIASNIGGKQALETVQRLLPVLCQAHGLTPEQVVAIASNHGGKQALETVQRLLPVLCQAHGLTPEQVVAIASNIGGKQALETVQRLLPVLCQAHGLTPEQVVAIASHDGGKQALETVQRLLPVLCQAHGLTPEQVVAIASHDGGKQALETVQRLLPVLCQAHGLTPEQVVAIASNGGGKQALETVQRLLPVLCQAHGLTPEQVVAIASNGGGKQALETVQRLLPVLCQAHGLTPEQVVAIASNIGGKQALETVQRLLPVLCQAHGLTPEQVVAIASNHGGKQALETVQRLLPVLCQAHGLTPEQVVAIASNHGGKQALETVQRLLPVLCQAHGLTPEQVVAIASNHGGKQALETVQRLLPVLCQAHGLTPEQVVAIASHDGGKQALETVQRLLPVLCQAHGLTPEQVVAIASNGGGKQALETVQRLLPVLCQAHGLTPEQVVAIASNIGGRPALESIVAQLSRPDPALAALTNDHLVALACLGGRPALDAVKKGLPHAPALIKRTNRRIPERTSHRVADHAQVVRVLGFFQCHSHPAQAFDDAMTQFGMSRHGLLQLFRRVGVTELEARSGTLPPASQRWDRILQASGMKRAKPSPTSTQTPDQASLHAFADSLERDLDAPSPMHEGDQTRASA
Briefly: cell_activity; HEK 293FT, endogenous mRNA; reporter 2.7x that of NK. The note with it: tags: VP64, 2A-GFP.

On to “TTCTTGGTTATAAC (double strand) [RVD screen G-reporter]”, for which the binding signal (G- to A-reporter activation ratio) in data set [1] turned out to be 16.4; in data set [2] it was 3.5.

With SOX2 TALE-TF site, the activity (fold activation) in data set [3] was below 5.

“GTCCTAACCACTGTCTTT (double strand) [AAVS1 right TALEN site]” yielded an activity (% cleavage (pair)) in data set [4] below 3.6.

With “TGTCCCCTCCACCCCACA (double strand) [AAVS1 left TALEN site]”, the activity (% cleavage (pair)) in data set [5] is below 3.6.

B1: CACNA1C site 2 (dsDNA)
DNA 1: TGGTAGACCTTAGGGCTA
DNA 2: TAGCCCTAAGGTCTACCA
Take B1: the activity in data set [6] and in data set [7] was around 3 fold activation in each case.
